B1: Endo-Cp: endo-β-N-acetylglucosaminidase from Candida parapolymorpha DL-1 ATCC26012, amino acid sequence SEQ ID NO. 5, 745 amino acids (protein, listed as Candida parapolymorpha)
chain: MPRNTAKHSSLPQTNLPLSSLESSFFDSLDELANWERRIHEKSFELDELNKPTEKLAHYTRARQQSTSEDVKLLVCHDLKGGYQVNEDEDPLGYFPHPDGQHYFLQYPQLVDKFVYFSHHRVSIPPVSWINVCHRNAIKCLGTVIFEGNTYRDFEEADKLLTKQDGEYVFVRCLVALVEYFQFDGYLFNIETRFSNTRIASLLEPFLEQLRAELHVRNPSTELIWYDSYIYPENRVLYKNGVTEANYNFFSCCDSFFTNYWWNVKHLQDNIKNVGVLGSRLKVYAGYDVWGRGTMIGKGGYDSALACQMIKKYRSNVALFAPAWTYEYLARKDFTQNDTRFWIGLFDGESSMATTFKPYSSPLYKINDSNFVFYTNFGSGEGCAFYECGEKVYRDNWVNGSLQMEIPYAIHTRNKNGIQWTLSKEDSFHGGSCVEIKYNEVVDDKGYQVFNNQTINSFSLFSFVQDCSFPTVNVKLTYKLNHKTKSFFKLKIGYYIERRYRTVQKVRSGCLVVPLLSTNDQWFTIEEPFHVSLQNSHEFIVLDSATIFYEETEDPFMRAHVVEDQSTSSVIDNEEYEKLMNSEIYFDDEDEDWILVPSDISMESTDNGGRENHTWKVISNQIRKKHPKSHPSTSPVLKLGELAIINANDYPSDSFFKLMPVNSIDVRRWEGKILLIWKTNQDSVLYHLIFVDDVFQGISLVSKFVFEDQAVDEKSFKTKSGGSTKVRIDTVNRLGILVKGTDM
B2: Endo-Om: endo-β-N-acetylglucosaminidase from methylotrophic yeast Ogataea minuta IFO10746, amino acid sequence SEQ ID NO. 1, 772 amino acids (protein, listed as Ogataea minuta)
chain: MAQSQLLGGAVRPVFFDKLEELRRWHTQSANLSRESELDSLNVATEPFSSYERAQTGSGSRSSEPVPGDKEDPPIKLMVCHDFKGGYQDYEDAQPLGYFPHPTGSRYFLQYPQLIDQFVYFSHHRVTVPPVNWINFCHRNGIKCFGTVIFEGNASKDFEELDRLVSRDEKGDFVFVDALIKLAAHYGFDGYLLNIETTFSNTKIAADLEPFAEQLKSGLHCLDSKNELIWYDSYVFPANKVSYTNGVTESNYNFFSLSDAFFSNYWWNIKNLQENIKNVGVLGVQKKIYVGYDVWGRGTLVGKGGFDSSLACKMIAKFKSNVALFAPAWTYESLGPKDFNQNDARFWIGLFENESSISSTVPPHSSAVYKINESSFIFYTNFSSGEGNRFFSKGSEVYRKNWVNGSLQFDLPIDLHRKDKNGLQWALDKSDAFHGGACLEIKYSEIKDENGYQIFNNQMVSDFTLFNFTKECHFPTVNVKVTYKLNHKTKSTFKIKIKYIIERRFRSVQTVRTGYLTIPLLSTSGKWFTVEESFQINLQTSHEYIVLESAHVTYDEDRSADSFFRSYIVEDSAITSVIDNEEYEKLINSEIYNDDEDEDWILVPSDVSISSSESQSNDSKTQYLGRKLFGNKSTPKTRTLEGTAPLLRIGEFAIISANNYPSSNFLAVTSVKSIESSRLEGDSLVLLNWQVGEGHQKGVCYYIIYVNGAVVGLSVAPKFIYQDTELASENSASARSNYKKSGLGSSSDRKSKVRVDSVDKLGNVFTGSEVWV

Assay: Enzyme activity measurement with NGA2-Asn-Fmoc by HPLC (specific activity, Km, Vmax)
Assay type: biochemical
Settings: for Specific activity: 1 mM NGA2-Asn-Fmoc as substrate
Method: The enzyme activity was measured as follows. A reaction solution (total volume: 10 μl) containing 100 mM of a sodium acetate buffer (pH 5.3) at the final concentration, 0.5 M NaCl, 10 μM of a Fmoc-labeled biantennary complex type sugar chain (NGA2-Asn-Fmoc), […], and heated at 95° C. for 5 minutes, thereby stopping the enzyme reaction. The reaction solution was subjected to HPLC, and the enzymatic activity was calculated from the peak area ratio between the NGA2-Asn-Fmoc as the substrate and its hydrolysate. The column was Asahipak NH2P-50 4E (4.6.250 mm, Shodex), and the solvents were acetonitrile (solvent A) and 200 mM of TEAA (pH 7.0, GLEN RESEARCH: solvent B). Isocratic elution was carried out at a flow rate of 1.0 ml/min, and the solvent B: 43%, and detection was carried out using a fluorescence detector (excitation wavelength 265 nm, and fluorescence wavelength 315 nm). The activity hydrolyzing […] of NGA2-Asn-Fmoc in 1 minute under the above-described reaction conditions was defined as 1 Unit of the enzymatic activity of Endo-Om.
The properties of Endo-Om were studied using a purified enzyme solution. According to the method described in Example 4, the Endo-Om crude enzyme solution prepared from 100 ml culture was substituted with an equilibration buffer (20 mM sodium phosphate buffer (pH 7.4), 0.5 M NaCl, 0.5 mM PMSF, 50 mM imidazole) by dialysis. The Endo-Om crude enzyme solution after dialysis was subjected to a HisTrap HP column (GE Healthcare), washed with the equilibration buffer, and eluted stepwise by an equilibration buffer containing 50 mM, 100 mM, and 200 mM of imidazole, thereby eluting the protein. The fraction containing Endo-Om eluted from the column was subjected to ultrafiltration concentration using Amicon Ultra (50,000 NMWL, Millipore), further dialyzed with 20 mM of sodium phosphate buffer (pH 7.4) and 0.5 M of NaCl, and glycerol was added to make the final concentration 10%, thereby making an Endo-Om purified enzyme solution. According to the method described in Example 4, the activity of the Endo-Om purified enzyme solution when the substrate concentration was 1 mM was measured, and the specific activity was calculated. In addition, activity measurement was carried out using NGA2-Asn-Fmoc at different concentrations as the substrates, and Km and Vmax were calculated. For comparison, the specific activity, Km, and Vmax of the commercially available Endo-M were calculated by the same method. The optimal pH of Endo-M is 6.0 (Non Patent Literature 6), so that the pH of the sodium acetate buffer was made 6.0 when measuring the activity of Endo-M.
The enzyme activity was measured as follows. A reaction solution (total volume: 10 μl) containing 100 mM of a sodium acetate buffer (pH 5.3) at the final concentration, 0.5 M NaCl, 10 μM of a Fmoc-labeled biantennary complex type sugar chain (NGA2-Asn-Fmoc), and Endo-Cp was incubated at 30° C. for 3 hours, and heated at 95° C. for 5 minutes, thereby stopping the enzyme reaction. The reaction solution was subjected to HPLC, and the enzymatic activity was calculated from the peak area ratio between the NGA2-Asn-Fmoc as the substrate and its hydrolysate. […] Isocratic elution was carried out at a flow rate of 1.0 ml/min, and the solvent B: 43%, and detection was carried out using a fluorescence detector (excitation wavelength 265 nm, and fluorescence wavelength 315 nm). […]
The enzyme activity was measured as follows. […]

Molecule | Specific activity of partially purified enzyme solution (10 μM NGA2-Asn-Fmoc as substrate, pH 5.3, 30° C.) [μUnit/mg] | Specific activity (purified Endo-Om) [µmol/min/mg] | Specific activity (purified Endo-Om (pH 5.3), commercially available Endo-M (pH 6.0)) [µmol/min/mg] | Km relative to the Km of Endo-M (NGA2-Asn-Fmoc) [times] | Vmax relative to the Vmax of Endo-M (NGA2-Asn-Fmoc) [times]
B1 | 120 |  |  |  | 
B2 |  | 0.8 | 0.80 | 31 | 55
